Publication PMC7498345 (Nucleic Acids Research, 2020)
Substitutions are numbered along the chain they refer to. Names and notes keep the numbering of the source.

Assays:
GST-PHF6 WT = GST-PHF6 WT (UniProt Q8IWS0); assay: MST
[1] = test system: H2BK120 of H2B WT-containing mono-nucleosomes; assay: In vitro ubiquitination assay, H2B-Flag WT mono-nucleosomes; assay type: biochemical; details: GST-PHF6 WT/MTs as E3; E1, E2, ubiquitin, 50 μM ZnCl2; 37°C, 1 h

H2B peptide (1:20) with K12Ac modification
fold higher affinity than for the H2B WT peptide (GST-PHF6 WT): 5 fold

B1: PHF6 WT: PHF6 WT expressed as GST fusion protein in E. coli Rosetta (DE3) cells (protein)
chain: MSSSVEQKKGPTRQRKCGFCKSNRDKECGQLLISENQKVAAHHKCMLFSSALVSSHSDNESLGGFSIEDVQKEIKRGTKLMCSLCHCPGATIGCDVKTCHRTYHYHCALHDKAQIREKPSQGIYMVYCRKHKKTAHNSEADLEESFNEHELEPSSPKSKKKSRKGRPRKTNFKGLSEDTRSTSSHGTDEMESSSYRDRSPHRSSPSDTRPKCGFCHVGEEENEARGKLHIFNAKKAAAHYKCMLFSSGTVQLTTTSRAEFGDFDIKTVLQEIKRGKRMKCTLCSQPGATIGCEIKACVKTYHYHCGVQDKAKYIENMSRGIYKLYCKNHSGNDERDEEDEERESKSRGKVEIDQQQLTQQQLNGN
modifications: labeled with the dye NT-647 (Cy5), in the MST only; left off: GST, end not stated, kept
E3 ubiquitin ligase activity for H2BK120 [1]: able to ubiquitinate H2BK120

B2: E223S: H2BK12Ac unrecognizable MT of extended PHD2 (protein)
chain: B1 chain with E223S
modifications: labeled with the dye NT-647 (Cy5), in the MST only; left off: GST, end not stated, kept
E3 ubiquitin ligase activity for H2BK120 [1]: neither C82A (functional activity dead MT of extended PHD1 by disrupting Zinc ion capturing) nor E223S (H2BK12Ac unrecognizable MT of extended PHD2) were able to ubiquitinate H2BK120

B3: C82A (protein, UniProt Q8IWS0 2-365, looked up, variant C82A)
PHD finger protein 6: SSSVEQKKGPTRQRKCGFCKSNRDKECGQLLISENQKVAAHHKCMLFSSALVSSHSDNESLGGFSIEDVQKEIKRGTKLMASLCHCPGATIGCDVKTCHRTYHYHCALHDKAQIREKPSQGIYMVYCRKHKKTAHNSEADLEESFNEHELEPSSPKSKKKSRKGRPRKTNFKGLSEDTRSTSSHGTDEMESSSYRDRSPHRSSPSDTRPKCGFCHVGEEENEARGKLHIFNAKKAAAHYKCMLFSSGTVQLTTTSRAEFGDFDIKTVLQEIKRGKRMKCTLCSQPGATIGCEIKACVKTYHYHCGVQDKAKYIENMSRGIYKLYCKNHSGNDERDEEDEERESKSRGKVEIDQQQLTQQQLNGN
E3 ubiquitin ligase activity for H2BK120 [1]: neither C82A (functional activity dead MT of extended PHD1 by disrupting Zinc ion capturing) nor E223S (H2BK12Ac unrecognizable MT of extended PHD2) were able to ubiquitinate H2BK120

B4: R129A (protein, UniProt Q8IWS0 2-365, looked up, variant R129A)
PHD finger protein 6: B3 PHD finger protein 6 with A81C, R128A
E3 ubiquitin ligase activity for H2BK120 [1]: indispensable for E3 ligase activity of PHF6

B5: M125A (protein, UniProt Q8IWS0 2-365, looked up, variant M125A)
PHD finger protein 6: B3 PHD finger protein 6 with A81C, M124A
E3 ubiquitin ligase activity for H2BK120 [1]: indispensable for E3 ligase activity of PHF6
